Measured values as given in IntAct's records for PubMed 17380123.

B1: Zinc finger HIT domain-containing protein 1 (Homo sapiens), O43257 (parent)
chain: MVEKKTSVRSQDPGQRRVLDRAARQRRINRQLEALENDNFQDDPHAGLPQLGKRLPQFDDDADTGKKKKKTRGDHFKLRFRKNFQALLEEQNLSVAEGPNYLTACAGPPSRPQRPFCAVCGFPSPYTCVSCGARYCTVRCLGTHQETRCLKWTV

Variants of: B1
Conditions: with mk14_human MAPK14, Q16539
Sequence of mk14_human MAPK14, Q16539 (Q16539 whole entry): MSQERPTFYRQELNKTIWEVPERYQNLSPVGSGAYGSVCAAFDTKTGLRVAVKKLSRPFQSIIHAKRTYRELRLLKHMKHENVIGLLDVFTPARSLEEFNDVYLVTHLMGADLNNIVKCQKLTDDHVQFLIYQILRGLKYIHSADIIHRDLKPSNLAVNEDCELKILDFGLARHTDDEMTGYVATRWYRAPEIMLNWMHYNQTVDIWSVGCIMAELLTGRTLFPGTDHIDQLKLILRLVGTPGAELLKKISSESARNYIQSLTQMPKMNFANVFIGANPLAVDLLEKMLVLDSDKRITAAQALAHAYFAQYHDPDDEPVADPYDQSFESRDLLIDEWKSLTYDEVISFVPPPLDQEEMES

Variant	effect of a mutation on the interaction
T103A	disrupting interaction
